Test results from patent publication US20100209400A1, “TAK1-Mediated Regulation of Osteogenesis” (priority 2003, published 2010).

Key:
C3H10T½-BMP2 cells [1] = assay: Semi-quantitative RT-PCR of osteo-/chondrogenic marker genes and Alcian Blue staining; format: cell-based, murine; conditions: co-expression in C3H10T½-BMP2 cells
Description: Proteoglycan-secreting chondrocytes were identified by staining with Alcian Blue at pH 2.5 (Alcian Blue 8GS, Roth, Karlsruhe).
Total cellular RNA was prepared by TriReagent LS according to the manufacturer's protocol (Molecular Research Center Inc., Ohio, Miss.). Five μg of total RNA was reverse transcribed with oligo-dT primers and cDNA aliquots were subjected to PCR. RT-PCR was normalized by the transcriptional levels of HPRT. The primer pairs and PCR conditions used to evaluate osteo-/chondrogenic differentiation, for collagen Ia1, collagen IIa1, osteocalcin, and the PTH/PTHrP-receptor have been described (Hoffmann A et al, J. Cell Sci 115: 769-781, 2002).

[2] = test system: SMAD1-mediated transcription; assay: SMAD1-SBE CAT reporter assay; format: cell-based, human; conditions: following activation by constitutively active receptors
Description: Reporter assays using the GALA DNA binding domain fused to various forms of SMAD proteins were performed as described (Meersseman, G at al, Mech. Dev, 61: 127-140, 1997). Briefly, 420 nanograms (ng) DNA was transfected/well (24 well-plate seeded with 1×10^5 HEK 293T cells) one day prior to transfection. The DNA mix included a plasmid expressing β-galactosidase under the control of the RSV promoter, for normalization purposes and a reporter plasmid encoding firefly luciferase under the control of 5 GAL4 binding sites upstream of a minimal TATA box (pG5 luc, Promega, Mannheim) and combinations of effector plasmids. The DNA content was normalized with empty vector.
Cells were harvested and lysed. β-Galactosidase (β-gal) activity was measured via the luminescent β-galactosidase kit II (Clontech, Palo Alto, Calif.), and luciferase activity via the luciferase assay system (Promega, Mannheim). All results are expressed as luciferase activity normalized with β-gal values (“relative luciferase activities”). Reporter assays with the SMAD1 DNA binding element SBE-9 (GCCG×9) (Kusanagi K et al, Mol Biol Cell 11: 555-565, 2000) cloned into pCAT5 vector (Boshart M et al, Gene 110: 129-130, 1992) were performed similarly except that cells were lysed in CAT lysis buffer. CAT enzyme was measured via CAT ELISA assay and β-gal via chemiluminescent β-gal reporter gene assay (Roche, Mannheim). […]

SMAD proteins = assay: Co-immunoprecipitation of TAK1 variants with SMADs from HEK293T cells; format: binding; conditions: SMAD7, R-SMADs 1-3, 5, SMAD4
Description: Co-immunoprecipitation were conducted as described (Verschueren K et al, J. Biol. Chem, 274: 20489-20498, 1999). Human embryonic kidney (HEK) 293T cells were plated at 3×10^6 cells/petri dish (55 square centimeters (cm^2)) one day prior to transfection. For transient transfections, 1 μg of Flag-tagged expression plasmid and 2 μg of Myc- or HA-tagged expression plasmids were utilized. DNA content was normalized with empty vector. Transfections were performed with FuGENE6 (Roche, Mannheim). Roughly 36 hours post-transfection cells were dislodged from dishes and harvested by centrifugation. Pellets were shock frozen in liquid nitrogen. […] reactions were performed in lysis buffer. Cell extracts and immunoprecipitates were analyzed by SDS-PAGE and Western blot analysis using the appropriate antibodies.
Toward this end, co-immunoprecipitation with various combinations of wild-type TAK1 (TAK1wt) and R-SMADs, either in a latent form or post-activation by constitutively active BMP type I receptor (ALK6ca, BMPR-IB) or activin type I receptor ALK4ca (ActR-IB), I-SMADs and SMAD4, were conducted. […] TAK1 interaction with R-SMADs was typically stronger in the absence of constitutively active receptors (the exception being SMAD3), which may reflect a reduced affinity for activated, i.e. phosphorylated R-SMADs by TAK1, except with SMAD3.
SMAD proteins only bind TAK1 with an intact or a constitutively active kinase domain. Different TAK1 variants such as TAK1wt, TAK1ca, TAK1dn and two deletions, TAKDN (lacking amino acids 1-300; FIG. 1a) and TAKDC (lacking 301-606; FIG. 1a), respectively, were tested for their ability to bind to R-SMADs (using SMAD1 as a representative) or I-SMAD6 and I-SMAD7.

C3H10T½-BMP2 cells [3] = assay: FACS for apoptosis and cell cycle progression; format: cell-based, murine; conditions: CDDP 25 μM; etoposide 10 μM; TAK1 variants stably co-expressed
Description: Exponentially growing cells were harvested 48 hours post-seeding or at different stages at and after confluence by trypsinization and fixation with 80% methanol. Cellular DNA content was determined by staining cells with RNAseS/propidium iodide, and measuring fluorescence in a Becton Dickinson FACScan. For each cell population, 10,000 cells were analyzed, and the proportions in G0/G1, G2/M and S-phases were estimated by using Modfit cell cycle analysis software. Information on cell size (e.g. due to differentiation) and complexity could be obtained from forward and side scatter data following evaluation of relevant cell populations.
To determine whether TAK1-mediated effects in the assay systems above resulted from apoptosis, C3H10T½-BMP2 cells co-expressing TAK1 variants were assayed by FACS for apoptosis and cell cycle progression.

B1: TAK1dn: dominant-negative TAK1 mutant (K63W), kinase inactive (protein)
chain: MSTASAASSSSSSSASEMIEAPSQVLNFEEIDYKEIEVEEVVGRGAFGVVCKAKWRAKDVAIWQIESESERKAFIVELRQLSRVNHPNIVKLYGACLNPVCLVMEYAEGGSLYNVLHGAEPLPYYTAAHAMSWCLQCSQGVAYLHSMQPKALIHRDLKPPNLLLVAGGTVLKICDFGTACDIQTHMTNNKGSAAWMAPEVFEGSNYSEKCDVFSWGIILWEVITRRKPFDEIGGPAFRIMWAVHNGTRPPLIKNLPKPIESLMTRCWSKDPSQRPSMEEIVKIMTHLMRYFPGADEPLQYPCQYSDEGQSNSATSTGSFMDIASTNTSNKSDTNMEQVPATNDTIKRLESKLLKNQAKQQSESGRLSLGASRGSSVESLPPTSEGKRMSADMSEIEARIVATAGNGQPRRRSIQDLTVTGTEPGQVSSRSSSPSVRMITTSGPTSEKPARSHPWTPDDSTDTNGSDNSIPMAYLTLDHQLQPLAPCPNSKESMAVFEQHCKMAQEYMKVQTEIALLLQRKQELVAELDQDEKDQQNTSRLVQEHKKLLDENKSLSTYYQQCKKQLEVIRSQQQKRQGTS
modifications: left off: small tags and cut ends
- expression of osteogenic marker genes (osteocalcin, PTH/PTHrP receptor) (C3H10T½-BMP2 cells [1]): no effect
- inhibition of SMAD1 transcription (CAT reporter), in words [2]: minimal inhibition
- binding of TAK1 variant to SMAD proteins (co-immunoprecipitation) (SMAD proteins): blocked binding
- apoptosis (subG0-G1 peak) (C3H10T½-BMP2 cells [3]): did not induce apoptosis
